Laboratory results reported in patent US20100120171A1.

What was measured:
[1] = biological target: Standard VE-cadherin (standard solutions run with the Bender MedSystems BMS253 kit) (UniProt P33151); assay: Bender BMS253 ELISA kit; standard VE-cadherin at 0.32 ng/mL; first replicate
[2] = biological target: Standard VE-cadherin (standard solutions run with the Bender MedSystems BMS253 kit) (UniProt P33151); assay: Bender BMS253 ELISA kit; standard VE-cadherin at 2.5 ng/mL
[3] = biological target: Standard VE-cadherin (standard solutions run with the Bender MedSystems BMS253 kit) (UniProt P33151); assay: Bender BMS253 ELISA kit; standard VE-cadherin at 0.63 ng/mL
[4] = biological target: Standard VE-cadherin (standard solutions run with the Bender MedSystems BMS253 kit) (UniProt P33151); assay: Bender BMS253 ELISA kit; standard VE-cadherin at 1.25 ng/mL; OD minus OD at 0 ng/mL
[5] = biological target: Standard VE-cadherin (standard solutions run with the Bender MedSystems BMS253 kit) (UniProt P33151); assay: Bender BMS253 ELISA kit; standard VE-cadherin at 0.32 ng/mL; second replicate
[6] = biological target: Standard VE-cadherin (standard solutions run with the Bender MedSystems BMS253 kit) (UniProt P33151); assay: Bender BMS253 ELISA kit; standard VE-cadherin at 0.16 ng/mL; first replicate
[7] = biological target: Standard VE-cadherin (standard solutions run with the Bender MedSystems BMS253 kit) (UniProt P33151); assay: Bender BMS253 ELISA kit; standard VE-cadherin at 1.25 ng/mL; first replicate
[8] = biological target: Standard VE-cadherin (standard solutions run with the Bender MedSystems BMS253 kit) (UniProt P33151); assay: Bender BMS253 ELISA kit; standard VE-cadherin at 0.63 ng/mL; first replicate
[9] = biological target: Standard VE-cadherin (standard solutions run with the Bender MedSystems BMS253 kit) (UniProt P33151); assay: Bender BMS253 ELISA kit; standard VE-cadherin at 0.16 ng/mL; second replicate
[10] = biological target: Standard VE-cadherin (standard solutions run with the Bender MedSystems BMS253 kit) (UniProt P33151); assay: Bender BMS253 ELISA kit; standard VE-cadherin at 0.16 ng/mL
[11] = biological target: Standard VE-cadherin (standard solutions run with the Bender MedSystems BMS253 kit) (UniProt P33151); assay: Bender BMS253 ELISA kit; standard VE-cadherin at 1.25 ng/mL; second replicate
[12] = biological target: Standard VE-cadherin (standard solutions run with the Bender MedSystems BMS253 kit) (UniProt P33151); assay: Bender BMS253 ELISA kit; standard VE-cadherin at 5 ng/mL
[13] = biological target: Standard VE-cadherin (standard solutions run with the Bender MedSystems BMS253 kit) (UniProt P33151); assay: Bender BMS253 ELISA kit; standard VE-cadherin at 1.25 ng/mL
[14] = biological target: Standard VE-cadherin (standard solutions run with the Bender MedSystems BMS253 kit) (UniProt P33151); assay: Bender BMS253 ELISA kit; standard VE-cadherin at 0.63 ng/mL; OD minus OD at 0 ng/mL
[15] = biological target: Standard VE-cadherin (standard solutions run with the Bender MedSystems BMS253 kit) (UniProt P33151); assay: Bender BMS253 ELISA kit; standard VE-cadherin at 2.5 ng/mL; first replicate
[16] = biological target: Standard VE-cadherin (standard solutions run with the Bender MedSystems BMS253 kit) (UniProt P33151); assay: Bender BMS253 ELISA kit; standard VE-cadherin at 2.5 ng/mL; second replicate
[17] = biological target: Standard VE-cadherin (standard solutions run with the Bender MedSystems BMS253 kit) (UniProt P33151); assay: Bender BMS253 ELISA kit; standard VE-cadherin at 10 ng/mL; first replicate
[18] = biological target: Standard VE-cadherin (standard solutions run with the Bender MedSystems BMS253 kit) (UniProt P33151); assay: Bender BMS253 ELISA kit; standard VE-cadherin at 10 ng/mL; OD minus OD at 0 ng/mL
[19] = biological target: Standard VE-cadherin (standard solutions run with the Bender MedSystems BMS253 kit) (UniProt P33151); assay: Bender BMS253 ELISA kit; standard VE-cadherin at 0.63 ng/mL; second replicate
[20] = biological target: Standard VE-cadherin (standard solutions run with the Bender MedSystems BMS253 kit) (UniProt P33151); assay: Bender BMS253 ELISA kit; standard VE-cadherin at 5 ng/mL; first replicate
[21] = biological target: Standard VE-cadherin (standard solutions run with the Bender MedSystems BMS253 kit) (UniProt P33151); assay: Bender BMS253 ELISA kit; standard VE-cadherin at 0.16 ng/mL; OD minus OD at 0 ng/mL
[22] = biological target: Standard VE-cadherin (standard solutions run with the Bender MedSystems BMS253 kit) (UniProt P33151); assay: Bender BMS253 ELISA kit; standard VE-cadherin at 0.32 ng/mL
[23] = biological target: Standard VE-cadherin (standard solutions run with the Bender MedSystems BMS253 kit) (UniProt P33151); assay: Bender BMS253 ELISA kit; standard VE-cadherin at 5 ng/mL; OD minus OD at 0 ng/mL
[24] = biological target: Standard VE-cadherin (standard solutions run with the Bender MedSystems BMS253 kit) (UniProt P33151); assay: Bender BMS253 ELISA kit; standard VE-cadherin at 5 ng/mL; second replicate
[25] = biological target: Standard VE-cadherin (standard solutions run with the Bender MedSystems BMS253 kit) (UniProt P33151); assay: Bender BMS253 ELISA kit; standard VE-cadherin at 2.5 ng/mL; OD minus OD at 0 ng/mL
[26] = biological target: Standard VE-cadherin (standard solutions run with the Bender MedSystems BMS253 kit) (UniProt P33151); assay: Bender BMS253 ELISA kit; standard VE-cadherin at 10 ng/mL
[27] = biological target: Standard VE-cadherin (standard solutions run with the Bender MedSystems BMS253 kit) (UniProt P33151); assay: Bender BMS253 ELISA kit; standard VE-cadherin at 10 ng/mL; second replicate
[28] = biological target: Standard VE-cadherin (standard solutions run with the Bender MedSystems BMS253 kit) (UniProt P33151); assay: Bender BMS253 ELISA kit; standard VE-cadherin at 0.32 ng/mL; OD minus OD at 0 ng/mL

UniProt P33151, sequence (P33151 48-593 limits assumed): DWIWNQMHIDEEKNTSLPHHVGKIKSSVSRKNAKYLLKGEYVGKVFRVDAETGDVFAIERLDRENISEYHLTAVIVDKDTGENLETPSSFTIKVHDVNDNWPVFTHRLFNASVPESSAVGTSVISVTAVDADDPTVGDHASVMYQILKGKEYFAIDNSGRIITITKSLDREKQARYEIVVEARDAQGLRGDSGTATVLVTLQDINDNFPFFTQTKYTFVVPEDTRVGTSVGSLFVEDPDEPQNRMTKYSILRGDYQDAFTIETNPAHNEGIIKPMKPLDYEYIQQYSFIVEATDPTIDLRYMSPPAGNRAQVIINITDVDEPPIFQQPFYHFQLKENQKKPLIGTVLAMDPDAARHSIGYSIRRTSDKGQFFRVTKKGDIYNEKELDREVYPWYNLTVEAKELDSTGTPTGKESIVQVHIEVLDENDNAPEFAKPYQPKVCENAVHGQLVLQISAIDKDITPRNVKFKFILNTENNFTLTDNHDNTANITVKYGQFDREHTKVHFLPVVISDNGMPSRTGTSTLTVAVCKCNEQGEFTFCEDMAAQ

Substance: mAb provided in the human soluble VE-cadherin ELISA kit (Bender MedSystems, reference BMS253) (antibody)
- OD [1]: 0.258 OD
- mean OD [2]: 0.616 OD
- mean OD [3]: 0.244 OD
- corr. mean (OD) [4]: 0.305 OD
- OD [5]: 0.181 OD
- OD [6]: 0.145 OD
- OD [7]: 0.371 OD
- OD [8]: 0.265 OD
- OD [9]: 0.162 OD
- mean OD [10]: 0.154 OD
- OD [11]: 0.454 OD
- mean OD [12]: 1.17 OD
- mean OD [13]: 0.413 OD
- corr. mean (OD) [14]: 0.136 OD
- OD [15]: 0.61 OD
- OD [16]: 0.621 OD
- OD [17]: 2.41 OD
- corr. mean (OD) [18]: 2.52 OD
- OD [19]: 0.222 OD
- OD [20]: 1.29 OD
- corr. mean (OD) [21]: 0.046 OD
- mean OD [22]: 0.22 OD
- corr. mean (OD) [23]: 1.06 OD
- OD [24]: 1.05 OD
- corr. mean (OD) [25]: 0.508 OD
- mean OD [26]: 2.63 OD
- OD [27]: 2.85 OD
- corr. mean (OD) [28]: 0.112 OD
